# Data published in PMC9436389 (Frontiers in Immunology, 2022).
# Columns and labels:
# [1] = biological target: EBOV GP[change] (unstabilised, ectodomain-only Ebola virus glycoprotein without mucin-like domain) (Ebola virus (Mayinga 1976 strain)) (UniProt Q05320); assay: SEC
# [2] = biological target: NiV F[change] (recombinant NiV sF glycoprotein in its postfusion conformation) (Nipah virus); assay: SEC
Substance,stoichiometry N [1],stoichiometry N [2]
"EBOV GP[change] (unstabilised, ectodomain-only Ebola virus glycoprotein without mucin-like domain) (from UniProt Q05320) (domain or fragment)",3,
NiV F[change] (recombinant NiV sF glycoprotein in its postfusion conformation) (domain or fragment),,3
